Experimental data taken from article PMC8141644 (2021).
Read-outs that look alike come from different tables or passages of the source.

Legend:
EGFR-ECD [1] = target: T1, EGFR-ECD (UniProt P00533 25-645); assay: BLI
EGFR-ECD [2] = target: T1, EGFR-ECD; assay: BLI; remark: listed apart in the source

Kd (EGFR-ECD [1])	Kd (EGFR-ECD [2])	Binder
3.7 nM		dFEB4-1 (antibody, V domains shown) VH: AVTLDESGGGLQTPGGALSLVCKASGFTFSSHGMLWVRQAPGKGLEFVAGISTDGSSTSYGAPVKGRATISRDNGQSTVRLQLNNLRAEDTGTYYCAKDAYRCRNCAEDIDAWGHGTEVIVSS VL: ALTQPSSVSANPGETVKITCSGGGYDGSYYYGWYQQKSPGSAPVTVIYDNTNRPSNIPSRFSGSLSGSTNTLTITGVQAEDEAVYFCGGYDRSGGIFGGGTTLTVL
	29.3 nM	FEB4 (antibody, V domains shown) VH: AVTLDESGGGLQTPGGALSLVCKASGFTFSSHGMLWVRQAPGKGLEFVAGISTDGSSTSYGAPVKGRATISRDNGQSTVRLQLNNLRAEDTGTYYCAKDAYRCRNCAEDIDAWGHGTEVIVSS VL: ALTQPSSVSANPGETVKITCSGGYSDDGSYYYYGWFQQKSPGSAPVTVIYDNTNRPSNIPSRFSGSTSGSTSTLTITGVRAEDEAVYYCGSIDTGYAGIFGAGTTLTVL
